Data reported in article PMC4298681 (The Journal of Cell Biology, 2015).

Molecular target: native Arp2/3 complex purified from Acanthamoeba castellanii (Acanthamoeba castellanii, UniProt P53487 1-388)
Assay: pull-down

B1: GST-NIK 340–500 (domain or fragment)
chain: SSIVNVPGESTLRRDFLRLQQENKERSEALRRQQLLQEQQLREQEEYKRQLLAERQKRIEQQKEQRRRLEEQQRREREARRQQEREQRRREQEEKRRLEELERRRKEEEERRRAEEEKRRVEREQEYIRRQLEEEQRHLEILQQQLLQEQAMLLHDHRRPH
B1 showed a Kd of ~213 nM.
